Results: patent US20260209320A1 (ALCHEMAB THERAPEUTICS, published 2026)

Tests used:
Peptide 32 = target: T1, Peptide 32 (mouse); assay: peptide microarray; Sp M; IgG 1 µg/ml
T1 peptide: QQQQQPPPQAPPPPP

Peptide 33 = target: T2, Peptide 33 (mouse); assay: peptide microarray; Sp M; IgG 1 µg/ml
T2 peptide: QQQQPPPQAPPPPPP

Peptide 34 = target: T3, Peptide 34 (mouse); assay: peptide microarray; Sp M; IgG 1 µg/ml
T3 peptide: QQQPPPQAPPPPPPP

Peptide 35 = target: T4, Peptide 35 (mouse); assay: peptide microarray; Sp M; IgG 1 µg/ml
T4 peptide: QQPPPQAPPPPPPPP

Peptide 36 = target: T5, Peptide 36 (mouse); assay: peptide microarray; Sp M; IgG 1 µg/ml
T5 peptide: QPPPQAPPPPPPPPP

Peptide 37 = target: T6, Peptide 37 (mouse); assay: peptide microarray; Sp M; IgG 1 µg/ml
T6 peptide: PPPQAPPPPPPPPPP

Peptide 38 = target: T7, Peptide 38 (mouse); assay: peptide microarray; Sp M; IgG 1 µg/ml
T7 peptide: PPQAPPPPPPPPPPQ

Peptide 39 = target: T8, Peptide 39 (mouse); assay: peptide microarray; Sp M; IgG 1 µg/ml
T8 peptide: PQAPPPPPPPPPPQP

Peptide 40 = target: T9, Peptide 40 (mouse); assay: peptide microarray; Sp M; IgG 1 µg/ml
T9 peptide: QAPPPPPPPPPPQPP

Peptide 42 = target: T10, Peptide 42 (mouse); assay: peptide microarray; Sp M; IgG 1 µg/ml
T10 peptide: PQPPPQGQPPPPPPP

Peptide 43 = target: T11, Peptide 43 (mouse); assay: peptide microarray; Sp M; IgG 1 µg/ml
T11 peptide: QPPPQGQPPPPPPPL

Peptide 44 = target: T12, Peptide 44 (mouse); assay: peptide microarray; Sp M; IgG 1 µg/ml
T12 peptide: PPPQGQPPPPPPPLP

Epitope 1 [1] = target: T13, Epitope 1 (human, cyno); assay: peptide microarray; Sp H; IgG 10 µg/ml
T13 peptide: QQQQPPPPPPPPPPP

Peptide 1 [2] = target: T14, Peptide 1 (human, cyno); assay: peptide microarray; Sp H; IgG 10 µg/ml
T14 peptide: QQQQQQQQPPPPPPP

Peptide 2 [3] = target: T15, Peptide 2 (human, cyno); assay: peptide microarray; Sp H; IgG 10 µg/ml
T15 peptide: QQQQQQQPPPPPPPP

Peptide 3 [4] = target: T16, Peptide 3 (human, cyno); assay: peptide microarray; Sp H; IgG 10 µg/ml
T16 peptide: QQQQQQPPPPPPPPP

Peptide 4 [5] = target: T17, Peptide 4 (human, cyno); assay: peptide microarray; Sp H; IgG 10 µg/ml
T17 peptide: QQQQQPPPPPPPPPP

Peptide 7 = target: T18, Peptide 7 (human); assay: peptide microarray; Sp H; IgG 10 µg/ml
T18 peptide: PQAQPLLPQPQPPPP

Peptide 8 = target: T19, Peptide 8 (human); assay: peptide microarray; Sp H; IgG 10 µg/ml
T19 peptide: QAQPLLPQPQPPPPP

Peptide 9 = target: T20, Peptide 9 (human); assay: peptide microarray; Sp H; IgG 10 µg/ml
T20 peptide: AQPLLPQPQPPPPPP

Peptide 10 = target: T21, Peptide 10 (human); assay: peptide microarray; Sp H; IgG 10 µg/ml
T21 peptide: QPLLPQPQPPPPPPP

Peptide 11 = target: T22, Peptide 11 (human); assay: peptide microarray; Sp H; IgG 10 µg/ml
T22 peptide: PLLPQPQPPPPPPPP

Peptide 12 = target: T23, Peptide 12 (human); assay: peptide microarray; Sp H; IgG 10 µg/ml
T23 peptide: LLPQPQPPPPPPPPP

Peptide 13 = target: T24, Peptide 13 (human); assay: peptide microarray; Sp H; IgG 10 µg/ml
T24 peptide: LPQPQPPPPPPPPPP

Peptide 16 = target: T25, Peptide 16 (human); assay: peptide microarray; Sp H; IgG 10 µg/ml
T25 peptide: PQPPPPPPPPPPGPA

Peptide 17 = target: T26, Peptide 17 (human); assay: peptide microarray; Sp H; IgG 10 µg/ml
T26 peptide: QPPPPPPPPPPGPAV

Epitope 1 [6] = target: T13, Epitope 1; assay: peptide microarray; Sp C1; IgG 10 µg/ml
Peptide 1 [7] = target: T14, Peptide 1; assay: peptide microarray; Sp C1; IgG 10 µg/ml
Peptide 2 [8] = target: T15, Peptide 2; assay: peptide microarray; Sp C1; IgG 10 µg/ml
Peptide 3 [9] = target: T16, Peptide 3; assay: peptide microarray; Sp C1; IgG 10 µg/ml
Peptide 4 [10] = target: T17, Peptide 4; assay: peptide microarray; Sp C1; IgG 10 µg/ml
Peptide 18 = target: T27, Peptide 18 (cyno); assay: peptide microarray; Sp C1; IgG 10 µg/ml
T27 peptide: QQQPPPPPPPPPPPP

Peptide 21 [11] = target: T28, Peptide 21 (cyno); assay: peptide microarray; Sp C1; IgG 10 µg/ml
T28 peptide: AQPMLPQPQPPPPPP

Peptide 22 = target: T29, Peptide 22 (cyno); assay: peptide microarray; Sp C1; IgG 10 µg/ml
T29 peptide: QPMLPQPQPPPPPPR

Peptide 4 [12] = target: T17, Peptide 4; assay: peptide microarray; Sp C2; IgG 10 µg/ml
Peptide 21 [13] = target: T28, Peptide 21; assay: peptide microarray; Sp C2; IgG 10 µg/ml
Peptide 24 = target: T30, Peptide 24 (cyno); assay: peptide microarray; Sp C2; IgG 10 µg/ml
T30 peptide: QQQQQQQQQPPPPPP

Peptide 25 = target: T31, Peptide 25 (cyno); assay: peptide microarray; Sp C2; IgG 10 µg/ml
T31 peptide: QQPPPPPPPPPPPPQ

Peptide 29 = target: T32, Peptide 29 (cyno); assay: peptide microarray; Sp C2; IgG 10 µg/ml
T32 peptide: PMLPQPQPPPPPPPP

Peptide 30 = target: T33, Peptide 30 (cyno); assay: peptide microarray; Sp C2; IgG 10 µg/ml
T33 peptide: MLPQPQPPPPPPPPP

Row | Binder | corrected fluorescence intensity (Peptide 32) | corrected fluorescence intensity (Peptide 33) | corrected fluorescence intensity (Peptide 34) | corrected fluorescence intensity (Peptide 35) | corrected fluorescence intensity (Peptide 36) | corrected fluorescence intensity (Peptide 37) | corrected fluorescence intensity (Peptide 38) | corrected fluorescence intensity (Peptide 39) | corrected fluorescence intensity (Peptide 40) | corrected fluorescence intensity (Peptide 42) | corrected fluorescence intensity (Peptide 43) | corrected fluorescence intensity (Peptide 44) | corrected fluorescence intensity (Epitope 1 [1]) | corrected fluorescence intensity (Peptide 1 [2]) | corrected fluorescence intensity (Peptide 2 [3]) | corrected fluorescence intensity (Peptide 3 [4]) | corrected fluorescence intensity (Peptide 4 [5]) | corrected fluorescence intensity (Peptide 7) | corrected fluorescence intensity (Peptide 8) | corrected fluorescence intensity (Peptide 9) | further results
1 | ATL_0005335 (antibody, V domains shown, human IgG1; also called ATL_5335) VH: EVQLVESGGGLVKPGGSLRLSCAASGFTFNKAWMNWVRQAPGKGLEWVGRIKSGIDGGTTDYAAPVQGRFTISRDDSKNTVYLQMNSLNTEDTAVYYCIPPPYYYYYGLDVWGQGTTVTVSS VL: QSALTQPASVSGSPGQSITISCTGTSSDIGSYNLVSWYQQHPGNAPKPLIYEGSKRPSGVSARFSGSKSGNTASLTISGLQPEDEADYYCSSYAGFNTLVFGGGTKVTVL | 0 | 600 | 754 | 758 | 778 | 742 | 194 | 0 | 0 | 612 | 120 | 143 | 3840 | 729 | 2100 | 3190 | 3680 | 326 | 1510 | 3470 | corrected fluorescence intensity (Peptide 10): 5410; corrected fluorescence intensity (Peptide 11): 6680; corrected fluorescence intensity (Peptide 12): 8520; corrected fluorescence intensity (Peptide 13): 9010; corrected fluorescence intensity (Peptide 16): 415; corrected fluorescence intensity (Peptide 17): 166; corrected fluorescence intensity (Epitope 1 [6]): 3340; corrected fluorescence intensity (Peptide 1 [7]): 0; corrected fluorescence intensity (Peptide 2 [8]): 2230; corrected fluorescence intensity (Peptide 3 [9]): 3540; corrected fluorescence intensity (Peptide 4 [10]): 4320; corrected fluorescence intensity (Peptide 18): 4510; corrected fluorescence intensity (Peptide 21 [11]): 2740; corrected fluorescence intensity (Peptide 22): 374; corrected fluorescence intensity (Peptide 4 [12]): 10000; corrected fluorescence intensity (Peptide 21 [13]): 448; corrected fluorescence intensity (Peptide 24): 3260; corrected fluorescence intensity (Peptide 25): 3300; corrected fluorescence intensity (Peptide 29): 4680; corrected fluorescence intensity (Peptide 30): 6020
2 | ATL_0005331 (antibody, V domains shown, human IgG1; also called ATL_5331; Human IgG1 ATL_0005331) VH: EVQLVESGGGLVKPGGSLRLSCAASGFTFNKAWMNWVRQAPGKGLEWVGRIKSGIDGGTTDYAAPVQGRFTISRDDSKNTVYLQMNSLNTEDTAVYYCIPPPYYYYYGLDVWGQGTTVTVSS VL: QSALTQPRSVSGSPGQSITISCTGTSSDVGSYNLVSWFQQHPGKAPKLIIYEVNKRPSGVPDRFSGSKSGNTASLTVSGLQAEDEADYYCGSYAGTNNVFGTGTKLTVL | 0 | 0 | 162 | 181 | 190 | 180 | 0 | 0 | 0 | 41.5 | 14.5 | 0 | 2950 | 0 | 1340 | 1670 | 2620 | 119 | 1140 | 1260 | corrected fluorescence intensity (Peptide 10): 2250; corrected fluorescence intensity (Peptide 11): 2950; corrected fluorescence intensity (Peptide 12): 3490; corrected fluorescence intensity (Peptide 13): 3960; corrected fluorescence intensity (Peptide 16): 145; corrected fluorescence intensity (Peptide 17): 16.2; corrected fluorescence intensity (Epitope 1 [6]): 4160; corrected fluorescence intensity (Peptide 1 [7]): 378; corrected fluorescence intensity (Peptide 2 [8]): 1760; corrected fluorescence intensity (Peptide 3 [9]): 2290; corrected fluorescence intensity (Peptide 4 [10]): 3150; corrected fluorescence intensity (Peptide 18): 3100; corrected fluorescence intensity (Peptide 21 [11]): 1030; corrected fluorescence intensity (Peptide 22): 112; corrected fluorescence intensity (Peptide 4 [12]): 4870; corrected fluorescence intensity (Peptide 21 [13]): 888; corrected fluorescence intensity (Peptide 24): 994; corrected fluorescence intensity (Peptide 25): 947; corrected fluorescence intensity (Peptide 29): 2170; corrected fluorescence intensity (Peptide 30): 4250
